Reference: the supplement of paper PMC10724198
± gives the standard deviation of the averaged measurements.

System: Saccharomyces cerevisiae
Assay: protein stability index of tFT-peptide fusion (C-terminal peptide) (PSI (0-1 scale)); higher = more stable (slower turnover)
Conditions: genetic background: wild type; temperature: 30 C
Method: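 Multiplexed protein stability (MPS) profiling in S. cerevisiae. Random 12-aa peptides (tFT-X12 library) are fused to the C-terminus of a sfGFP-mCherry tandem fluorescent timer, after mCherry and a GGGS linker. Cells are FACS-sorted into 8 mCherry/sfGFP bins and deep-sequenced. The protein stability index (PSI) is the read-weighted bin average, scaled from 0 (unstable) to 1 (stable). Only peptides with >10 reads are reported; cells were grown at 30 °C in SC-His with glucose.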
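Also: PSI is a weighted mean of sequencing reads over stability bins, variants kept only with over 10 reads, mCherry proximal and sfGFP distal, peptide attached via GGGS linker.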

| Sequence | protein stability index |
| --- | --- |
| FWGGRGGVGLAV | 0.601 ± 0.1 |
| FWRPIPQSPLPQ | 0.7203 ± 0.002 |
| FYGFHPLALPRP | 0.725 ± 0.035 |
| FYKKKIRRGVNV | 0.661 ± 0.038 |
| FYMCYFSCSRSL | 0.667 ± 0.0086 |
| FYVCVIQNMYML | 0.579 ± 0.043 |
| GAAIRVNRCGEG | 0.64136 ± 0.00011 |
| GAAPRWSGDRRW | 0.71 ± 0.06 |
| GAASHLERGQVP | 0.634 ± 0.089 |
| GAATKRKYTINT | 0.665 ± 0.013 |
| GACFLGGRLCGR | 0.686 ± 0.024 |
| GACILARGVRRR | 0.656 ± 0.014 |
| GACPAFPYSVGR | 0.595 ± 0.018 |
| GAFLGSPWAAAS | 0.731 ± 0.04 |
| GAFRLGSIVGVP | 0.735 ± 0.032 |
| GAGAQRGCRSGG | 0.6878 ± 0.0034 |
| GAGGVGVTSGGK | 0.668 ± 0.056 |
| GAGVSELCGAGW | 0.713 ± 0.11 |
| GAHVAVFRQRGR | 0.678 ± 0.083 |
| GALYAGWRGPTC | 0.669 ± 0.031 |
| GAPAWMLLYSAS | 0.723 ± 0.029 |
| GAPKRLSISLSS | 0.681 ± 0.019 |
| GAPPPPPARGDL | 0.764 ± 0.03 |
| GARCHSKVTNAS | 0.681 ± 0.036 |
| GARGCSATGPPG | 0.61 ± 0.02 |

| Sequence | protein stability index |
| --- | --- |
| GARGWTVWVAGL | 0.632 ± 0.049 |
| GARPRSGVRGGT | 0.723 ± 0.022 |
| GAVGGGSAADPE | 0.667 ± 0.11 |
| GAVGLARVSASN | 0.653 ± 0.028 |
| GAVLELCRADGG | 0.651 ± 0.0082 |
| GAVTWGGAGVGV | 0.694 ± 0.022 |
| GAWCSTGENDTA | 0.677 ± 0.059 |
| GCAVLGCLVLSA | 0.655 ± 0.088 |
| GCEVRTFMNSSG | 0.697 ± 0.016 |
| GCGDIFAEQLLL | 0.7227 ± 0.0041 |
| GCGGRTAAWGGG | 0.655 ± 0.024 |
| GCGRLWAGIGRR | 0.678 ± 0.023 |
| GCGSGGLGGWRW | 0.746 ± 0.18 |
| GCGVWRVLRVLR | 0.642 ± 0.027 |
| GCPGGGRPGPRA | 0.7052 ± 0.0064 |
| GCRGRCVMPVCG | 0.634 ± 0.051 |
| GCRLFGLMFFDA | 0.682 ± 0.063 |
| GCRPFLLKSQTF | 0.777 ± 0.11 |
| GCRSFRNYKIGV | 0.641 ± 0.018 |
| GCRSYRVFSGMI | 0.727 ± 0.12 |
| GCVDRSSHNALC | 0.632 ± 0.037 |
| GCVVSIICGGRA | 0.5639 ± 0.0013 |
| GCWGRVLCGGSV | 0.695 ± 0.026 |
| GDCYLCSACEWW | 0.753 ± 0.016 |
| GDDCQYLVVPVR | 0.701 ± 0.052 |

| Sequence | protein stability index |
| --- | --- |
| GDDRGTSKCCLT | 0.702 ± 0.068 |
| GDIRLTGLSIVS | 0.638 ± 0.031 |
| GDSGVWGPMGLW | 0.732 ± 0.033 |
| GDSSSCSSYVYL | 0.651 ± 0.026 |
| GDSVNSRALALS | 0.732 ± 0.072 |
| GDWIYRMDRILI | 0.816 ± 0.035 |
| GDWLVVRLVPSK | 0.728 ± 0.013 |
| GDWSYIVGIKYY | 0.626 ± 0.0078 |
| GEALVWGHGRLS | 0.741 ± 0.041 |
| GEGALGLRENLQ | 0.665 ± 0.021 |
| GEGEAVREMRGV | 0.645 ± 0.025 |
| GEGLGGGRGRRW | 0.653 ± 0.026 |
| GEGRGDKGHGWT | 0.706 ± 0.19 |
| GELCGHSRALHG | 0.676 ± 0.071 |
| GEPGQTSGREKT | 0.641 ± 0.014 |
| GEPGRLNSSLFA | 0.678 ± 0.051 |
| GERGTRAERAGA | 0.682 ± 0.032 |
| GERLVGGWHIWN | 0.706 ± 0.015 |
| GESPSTIRSVYS | 0.609 ± 0.038 |
| GESWGGVGDVRR | 0.762 ± 0.028 |
| GETVGCARLRLS | 0.566 ± 0.023 |
| GEVGAVVGESFV | 0.622 ± 0.071 |
| GEVVGRCGAWVC | 0.611 ± 0.033 |
| GEVVRGGEWGLD | 0.686 ± 0.057 |
| GFAAPSRPACLP | 0.696 ± 0.017 |

| Sequence | protein stability index |
| --- | --- |
| GFACRSGSFWST | 0.848 ± 0.15 |
| GFFRGMLEGINA | 0.726 ± 0.073 |
| GFGEFVLSSGWG | 0.743 ± 0.018 |
| GFGRGRRGLEEN | 0.695 ± 0.024 |
| GFKDRCKDEKSL | 0.713 ± 0.11 |
| GFLGCGSGCGWG | 0.744 ± 0.057 |
| GFMRGVREKSSR | 0.701 ± 0.0073 |
| GFPILSGLAVVR | 0.6578 ± 0.0055 |
| GFPPSPPPPSPL | 0.741 ± 0.085 |
| GFRGILFPVGRS | 0.736 ± 0.03 |
| GFSCLALFCRVD | 0.587 ± 0.019 |
| GFVCRRFRFGCI | 0.634 ± 0.037 |
| GFYEVLRNMFVI | 0.589 ± 0.035 |
| GGAAGGGRGGDG | 0.62 ± 0.069 |
| GGAGLGSRSSAL | 0.743 ± 0.008 |
| GGAGSVAGVWAV | 0.673 ± 0.069 |
| GGASGGAGEGVG | 0.623 ± 0.063 |
| GGCFGGVGVGSG | 0.7122 ± 0.0045 |
| GGCGGVGGACVV | 0.738 ± 0.086 |
| GGCGGVGGWGVA | 0.712 ± 0.066 |
| GGCKSLYFEWGR | 0.734 ± 0.01 |
| GGCRSVGWGREG | 0.676 ± 0.029 |
| GGCTVLRASIFA | 0.597 ± 0.0063 |
| GGCVGVLGGWGF | 0.6827 ± 0.0032 |
| GGEGAAWAGGVG | 0.558 ± 0.028 |

| Sequence | protein stability index |
| --- | --- |
| GGEGMTCPGGGA | 0.693 ± 0.039 |
| GGFARGRDGWQL | 0.712 ± 0.0013 |
| GGFDDIYVPIFV | 0.694 ± 0.012 |
| GGFFPRISSLTV | 0.707 ± 0.054 |
| GGFGEFTWAEAA | 0.768 ± 0.0087 |
| GGFGVLGLGVVG | 0.6963 ± 0.0058 |
| GGFPVGLVSGFC | 0.641 ± 0.032 |
| GGFVVVGGVVGV | 0.72 ± 0.013 |
| GGFWLGVGSRVG | 0.711 ± 0.06 |
| GGGAEGGVRGGG | 0.664 ± 0.027 |
| GGGAGGGSDRVV | 0.736 ± 0.0096 |
| GGGAGRGGVVVR | 0.685 ± 0.023 |
| GGGAGVTLSADG | 0.682 ± 0.059 |
| GGGARCGWGGRM | 0.7 ± 0.011 |
| GGGARREGAGRG | 0.6752 ± 0.0064 |
| GGGCLRGFWCVW | 0.724 ± 0.046 |
| GGGEKVMVVGHG | 0.709 ± 0.013 |
| GGGERTAGVGQT | 0.733 ± 0.05 |
| GGGGARRLAVGQ | 0.678 ± 0.015 |
| GGGGETGRERKD | 0.655 ± 0.0061 |
| GGGGGGGAGGSV | 0.673 ± 0.0081 |
| GGGGGGSAVEGG | 0.674 ± 0.066 |
| GGGGGGVECRVG | 0.671 ± 0.086 |
| GGGGGGWSGACL | 0.716 ± 0.08 |
| GGGGGVGVVRVG | 0.66 ± 0.032 |

| Sequence | protein stability index |
| --- | --- |
| GGGGIREERVRE | 0.766 ± 0.19 |
| GGGGPVWREPGT | 0.761 ± 0.01 |
| GGGGQVWSCRLC | 0.678 ± 0.077 |
| GGGGSGGAGGGG | 0.641 ± 0.0089 |
| GGGGVVAGVCGG | 0.667 ± 0.098 |
| GGGGVVGVVRVG | 0.658 ± 0.044 |
| GGGGVVVVQGAG | 0.725 ± 0.058 |
| GGGLGGGWGVWG | 0.657 ± 0.025 |
| GGGLGGREPGGS | 0.742 ± 0.15 |
| GGGLGWVWVKLG | 0.735 ± 0.073 |
| GGGNRMRENGRE | 0.667 ± 0.026 |
| GGGPAVEGLVGR | 0.66 ± 0.045 |
| GGGPPARRRRGA | 0.652 ± 0.023 |
| GGGRGGGFSGGV | 0.655 ± 0.014 |
| GGGRGRAGENTR | 0.681 ± 0.049 |
| GGGTVGCVVALA | 0.64 ± 0.017 |
| GGGVHRAVRPGN | 0.653 ± 0.03 |
| GGGVLTWLGENC | 0.702 ± 0.0082 |
| GGGWDAVGVGGP | 0.7505 ± 0.0022 |
| GGGWDVRGGCVG | 0.724 ± 0.0089 |
| GGIGVGGGHMLL | 0.656 ± 0.024 |
| GGLAWSMSGCVG | 0.691 ± 0.076 |
| GGLGGAGAGVVC | 0.694 ± 0.11 |
| GGLLLPCGAFGG | 0.673 ± 0.06 |
| GGLVVGCGGMWV | 0.609 ± 0.0075 |

| Sequence | protein stability index |
| --- | --- |
| GGMEGRVACSAQ | 0.74 ± 0.057 |
| GGPGVKRPAMDP | 0.688 ± 0.0071 |
| GGPNKRTGVWGR | 0.657 ± 0.0069 |
| GGRGAGSDVGSL | 0.677 ± 0.04 |
| GGRGGAVEERGG | 0.67 ± 0.0078 |
| GGRGWGGEMGGR | 0.7156 ± 0.0052 |
| GGRGYRIKRKSV | 0.806 ± 0.12 |
| GGRHGSSRTGGY | 0.696 ± 0.018 |
| GGRKKEDEEEEA | 0.651 ± 0.078 |
| GGRPDQARPSRH | 0.741 ± 0.043 |
| GGRRGCFARWAR | 0.697 ± 0.046 |
| GGRRTLFCRFSY | 0.702 ± 0.017 |
| GGRVCGGRVEGQ | 0.684 ± 0.007 |
| GGRVFWGGSRSV | 0.651 ± 0.033 |
| GGRWWGRGVFGG | 0.652 ± 0.028 |
| GGSCGFGQGAGG | 0.685 ± 0.025 |
| GGSCTRNLLRYW | 0.727 ± 0.011 |
| GGSFVLGAALGV | 0.668 ± 0.039 |
| GGSGGRDGLCVG | 0.738 ± 0.049 |
| GGSLVRGAGVRS | 0.686 ± 0.031 |
| GGSWGGGGVFVR | 0.637 ± 0.083 |
| GGTAYFSNRGWA | 0.595 ± 0.036 |
| GGTGGRRGVGHV | 0.655 ± 0.022 |
| GGVEGGGCVGGG | 0.581 ± 0.014 |
| GGVGEFGEGALA | 0.689 ± 0.044 |

| Sequence | protein stability index |
| --- | --- |
| GGVGGFGGAGLG | 0.65 ± 0.023 |
| GGVGGLGTLCGG | 0.661 ± 0.051 |
| GGVGWGMVEGWR | 0.685 ± 0.057 |
| GGVGWWWVRGMG | 0.741 ± 0.029 |
| GGVKGTRFLLRG | 0.622 ± 0.051 |
| GGVKVRGGMGPE | 0.684 ± 0.019 |
| GGVRTLVSRHLP | 0.7121 ± 0.0043 |
| GGVSRSRNTRWN | 0.677 ± 0.026 |
| GGVVGVMWGGVR | 0.624 ± 0.029 |
| GGWARGRQGCGG | 0.782 ± 0.011 |
| GGWCGGSGRGAN | 0.63 ± 0.04 |
| GGWGGEVVLWQA | 0.678 ± 0.073 |
| GGWGSRGRVGDI | 0.744 ± 0.045 |
| GGWGTGTSGQGR | 0.715 ± 0.027 |
| GGWRGRAGENTR | 0.698 ± 0.036 |
| GGWWGGGGAWSG | 0.689 ± 0.053 |
| GHNTPRRVMSRC | 0.689 ± 0.037 |
| GHVEGPGDAESS | 0.701 ± 0.071 |
| GHVGFSKVSGKG | 0.664 ± 0.026 |
| GICLLRLDTFNI | 0.667 ± 0.1 |
| GIFSGTDRNLVC | 0.7075 ± 0.0069 |
